In PMC6995573 (2019):

T1: Human ornithine decarboxylase (human, UniProt P11926 2-421)
T1 chain: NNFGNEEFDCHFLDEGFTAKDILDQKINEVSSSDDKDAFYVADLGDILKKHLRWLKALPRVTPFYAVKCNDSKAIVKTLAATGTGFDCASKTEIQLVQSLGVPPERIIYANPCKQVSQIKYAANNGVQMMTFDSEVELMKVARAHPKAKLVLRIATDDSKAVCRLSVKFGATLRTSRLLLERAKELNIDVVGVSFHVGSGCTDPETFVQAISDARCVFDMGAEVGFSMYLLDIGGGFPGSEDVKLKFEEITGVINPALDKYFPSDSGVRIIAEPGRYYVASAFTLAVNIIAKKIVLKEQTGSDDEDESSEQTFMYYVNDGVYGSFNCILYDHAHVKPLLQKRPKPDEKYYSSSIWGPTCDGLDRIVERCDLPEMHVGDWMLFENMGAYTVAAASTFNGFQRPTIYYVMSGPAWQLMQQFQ


Target: T1, Human ornithine decarboxylase
Assay: inhibition of ODC enzyme activity

IC50	Binder
190 nM	AZ2 (natural protein) MINTQDSSILPLSNCPQLQCCRHIVPGPLWCSDAPHPLSKIPGGRGGGRDPSLSALIYKDEKLTVTQDLPVNDGKPHIVHFQYEVTEVKVSSWDAVLSSQSLFVEIPDGLLADGSKEGLLALLEFAEEKMKVNYVFICFRKGREDRAPLLKTFSFLGFEIVRPGHPCVPSRPDVMFMVYPLDQNLSDED
840 nM	AZ3_WT (natural protein) MPCKRCRPSVYSLSYIKRGKTRNYLYPIWSPYAYYLYCYKYRITLREKMLPRCYKSITYKEEEDLTLQPRSCLQCSESLVGLQEGKSTEQGNHDQLKELYSAGNLTVLATDPLLHQDPVQLDFHFRLTSQTSAHWHGLLCDRRLFLDIPYQALDQGNRESLTATLEYVEEKTNVDSVFVNFQNDRNDRGALLRAFSYMGFEVVRPDHPALPPLDNVIFMVYPLERDVGHLPSEPP

Target: T1, Human ornithine decarboxylase
Assay: AUC

Kd	Binder
280 nM	AZ2 (natural protein) MINTQDSSILPLSNCPQLQCCRHIVPGPLWCSDAPHPLSKIPGGRGGGRDPSLSALIYKDEKLTVTQDLPVNDGKPHIVHFQYEVTEVKVSSWDAVLSSQSLFVEIPDGLLADGSKEGLLALLEFAEEKMKVNYVFICFRKGREDRAPLLKTFSFLGFEIVRPGHPCVPSRPDVMFMVYPLDQNLSDED
590 nM	AZ3_WT (natural protein) MPCKRCRPSVYSLSYIKRGKTRNYLYPIWSPYAYYLYCYKYRITLREKMLPRCYKSITYKEEEDLTLQPRSCLQCSESLVGLQEGKSTEQGNHDQLKELYSAGNLTVLATDPLLHQDPVQLDFHFRLTSQTSAHWHGLLCDRRLFLDIPYQALDQGNRESLTATLEYVEEKTNVDSVFVNFQNDRNDRGALLRAFSYMGFEVVRPDHPALPPLDNVIFMVYPLERDVGHLPSEPP

Target: T1, Human ornithine decarboxylase
Assay: inhibition of ODC enzyme activity
Remark: another data set of the same source

IC50	Binder
160 nM	AZ_(95–228)_R114A (domain or fragment) not shown
190 nM	AZ_(95–228)_R100A (domain or fragment) not shown
190 nM	AZ_(95–228)_E105A (domain or fragment) not shown
170 nM	AZ_(95–228)_D99A (domain or fragment) not shown
170 nM	AZ_(95–228)_D124A (domain or fragment) not shown
190 nM	AZ_(95–228)_D111A (domain or fragment) not shown
200 nM	AZ_(95–228)_E106A (domain or fragment) not shown
160 nM	AZ_(95–228)_R121A (domain or fragment) not shown
180 nM	AZ_(95–228)_D98A (domain or fragment) not shown
